In PMC7205012 (Neuron, 2019):

Target: the molecule itself
Assay: cryo-EM structure

Protein	stoichiometry N
wild type human TRPA1 (transient receptor potential channel subfamily A member 1) (natural protein, UniProt O75762 1-1119, looked up, C621 covalently bound to JT010 (TRPA1_(WT-JT010)) or to BITC (TRPA1_(WT-BITC)); N747 glycosylated (two N-acetylglucosamine)) MKRSLRKMWRPGEKKEPQGVVYEDVPDDTEDFKESLKVVFEGSAYGLQNFNKQKKLKRCDDMDTFFLHYAAAEGQIELMEKITRDSSLEVLHEMDDYGNTPLHCAVEKNQIESVKFLLSRGANPNLRNFNMMAPLHIAVQGMNNEVMKVLLEHRTIDVNLEGENGNTAVIIACTTNNSEALQILLKKGAKPCKSNKWGCFPIHQAAFSGSKECMEIILRFGEEHGYSRQLHINFMNNGKATPLHLAVQNGDLEMIKMCLDNGAQIDPVEKGRCTAIHFAATQGATEIVKLMISSYSGSVDIVNTTDGCHETMLHRASLFDHHELADYLISVGADINKIDSEGRSPLILATASASWNIVNLLLSKGAQVDIKDNFGRNFLHLTVQQPYGLKNLRPEFMQMQQIKELVMDEDNDGCTPLHYACRQGGPGSVNNLLGFNVSIHSKSKDKKSPLHFAASYGRINTCQRLLQDISDTRLLNEGDLHGMTPLHLAAKNGHDKVVQLLLKKGALFLSDHNGWTALHHASMGGYTQTMKVILDTNLKCTDRLDEDGNTALHFAAREGHAKAVALLLSHNADIVLNKQQASFLHLALHNKRKEVVLTIIRSKRWDECLKIFSHNSPGNKCPITEMIEYLPECMKVLLDFCMLHSTEDKSCRDYYIEYNFKYLQCPLEFTKKTPTQDVIYEPLTALNAMVQNNRIELLNHPVCKEYLLMKWLAYGFRAHMMNLGSYCLGLIPMTILVVNIKPGMAFNSTGIINETSDHSEILDTTNSYLIKTCMILVFLSSIFGYCKEAGQIFQQKRNYFMDISNVLEWIIYTTGIIFVLPLFVEIPAHLQWQCGAIAVYFYWMNFLLYLQRFENCGIFIVMLEVILKTLLRSTVVFIFLLLAFGLSFYILLNLQDPFSSPLLSIIQTFSMMLGDINYRESFLEPYLRNELAHPVLSFAQLVSFTIFVPIVLMNLLIGLAVGDIAEVQKHASLKRIAMQVELHTSLEKKLPLWFLRKVDQKSTIVYPNKPRSGGMLFHIFCFLFCTGEIRQEIPNADKSLEMEILKQKYRLKDLTFLLEKQHELIKLIIQKMEIISETEDDDSHCSFQDRFKKEQMEQRNSRWNTVLRAVKAKTHHLEP	4
human TRPA1 C621S (natural protein, UniProt O75762 1-1119, looked up) MKRSLRKMWRPGEKKEPQGVVYEDVPDDTEDFKESLKVVFEGSAYGLQNFNKQKKLKRCDDMDTFFLHYAAAEGQIELMEKITRDSSLEVLHEMDDYGNTPLHCAVEKNQIESVKFLLSRGANPNLRNFNMMAPLHIAVQGMNNEVMKVLLEHRTIDVNLEGENGNTAVIIACTTNNSEALQILLKKGAKPCKSNKWGCFPIHQAAFSGSKECMEIILRFGEEHGYSRQLHINFMNNGKATPLHLAVQNGDLEMIKMCLDNGAQIDPVEKGRCTAIHFAATQGATEIVKLMISSYSGSVDIVNTTDGCHETMLHRASLFDHHELADYLISVGADINKIDSEGRSPLILATASASWNIVNLLLSKGAQVDIKDNFGRNFLHLTVQQPYGLKNLRPEFMQMQQIKELVMDEDNDGCTPLHYACRQGGPGSVNNLLGFNVSIHSKSKDKKSPLHFAASYGRINTCQRLLQDISDTRLLNEGDLHGMTPLHLAAKNGHDKVVQLLLKKGALFLSDHNGWTALHHASMGGYTQTMKVILDTNLKCTDRLDEDGNTALHFAAREGHAKAVALLLSHNADIVLNKQQASFLHLALHNKRKEVVLTIIRSKRWDECLKIFSHNSPGNKSPITEMIEYLPECMKVLLDFCMLHSTEDKSCRDYYIEYNFKYLQCPLEFTKKTPTQDVIYEPLTALNAMVQNNRIELLNHPVCKEYLLMKWLAYGFRAHMMNLGSYCLGLIPMTILVVNIKPGMAFNSTGIINETSDHSEILDTTNSYLIKTCMILVFLSSIFGYCKEAGQIFQQKRNYFMDISNVLEWIIYTTGIIFVLPLFVEIPAHLQWQCGAIAVYFYWMNFLLYLQRFENCGIFIVMLEVILKTLLRSTVVFIFLLLAFGLSFYILLNLQDPFSSPLLSIIQTFSMMLGDINYRESFLEPYLRNELAHPVLSFAQLVSFTIFVPIVLMNLLIGLAVGDIAEVQKHASLKRIAMQVELHTSLEKKLPLWFLRKVDQKSTIVYPNKPRSGGMLFHIFCFLFCTGEIRQEIPNADKSLEMEILKQKYRLKDLTFLLEKQHELIKLIIQKMEIISETEDDDSHCSFQDRFKKEQMEQRNSRWNTVLRAVKAKTHHLEP	4
